Data taken from patent publication US11547761B1, “Antibody adjuvant conjugates” (The Board of Trustees of the Leland Stanford Junior …, priority 2016, dated 2023).

System: human APCs (myeloid cells)
Assay: APC-tumor co-culture / myeloid cell stimulation, surface markers by flow cytometry
Assay type: cell-based
Conditions: 18 hours of stimulation
Source text: Human antigen presenting cells (APCs) were negatively selected from human peripheral blood mononuclear cells obtained from healthy blood donors (Stanford Blood Center) by density gradient centrifugation using a RosetteSep Human Monocyte Enrichment Cocktail (Stem Cell Technologies) containing monoclonal antibodies against CD2, CD3, CD8, CD19, CD56, CD66b and CD235a. Immature APCs were subsequently purified to >97% purity via negative selection using an EasySep Human Monocyte Enrichment Kit without CD16 depletion containing monoclonal antibodies against CD2, CD3, CD19, CD20, CD56, CD66b, CD123 and CD235a.
Tumor cells were resuspended in PBS with 0.1% fetal bovine serum (FBS) at 1 to 10×10^6 cells/mL. Cells were subsequently incubated with 2 μM CFSE to yield a final concentration of 1 μM. […]
2×10^5 APCs were incubated with or without 6.5×10^5 autologous or allogeneic CFSE-labeled tumor cells in 96-well plates (Corning) containing IMDM medium (Gibco) supplemented with 10% fetal bovine serum, 100 U/mL penicillin, 100 μg/mL streptomycin, 2 mM L-glutamine, sodium pyruvate, non-essential amino acids, 50 μM 2-ME and, where indicated, various concentrations of anti-tumor antibody and the indicated adjuvants. Cells and cell-free supernatants were analyzed after 18 hours via flow cytometry. […]

B1: Nivolumab IgG1 immunoconjugate (conjugate, chains of the INN, looked up)
VH: QVQLVESGGGVVQPGRSLRLDCKASGITFSNSGMHWVRQAPGKGLEWVAVIWYDGSKRYYADSVKGRFTISRDNSKNTLFLQMNSLRAEDTAVYYCATNDDYWGQGTLVTVSS
VL: EIVLTQSPATLSLSPGERATLSCRASQSVSSYLAWYQQKPGQAPRLLIYDASNRATGIPARFSGSGSGTDFTLTISSLEPEDFAVYYCQQSSNWPRTFGQGTKVEIK
modifications: IgG1 adjuvant immunoconjugate
APC / myeloid / dendritic cell activation (overall): very potent
